The labels stand for the following.
B1: HDV Ribozyme (parent)
chain: GGCCGGCAUGGUCCCAGCCUCCUCGCUGGCGCCGGCUGGGCAACAUUCCGAGGGGACCGUCCCCUCGGUAAUGGCGAAUGGGACCCA

Our source for the self-cleavage values is the RNAGym collection of RNA variant scans (doi:10.7554/elife.80360).

In the series the parent is B1. Description: self-cleavage, relative activity (ratio to wild type); higher = more cleavage; co-transcriptional.
Consider GGCCGGCAUGGUCCCAGCCUCCUCGCUGGCUCCGGCUGGGCAACAUUCCGACGGGACCGUCCCCUCGGUAAUGGCGAAUGGGACCCA, for which the self-cleavage was 0.35.
Take GGCCGGCAUGGUCCCAGCCUCCUCGCUGGCUCCGACUGGGCAACAUUCCGAGGGGACCGUCCCCUCGGUAAUGGCGAAUGGGACCCA: the self-cleavage is 0.17.
Under GGCCGGCAUGGUCCCAGCCUCCUCGCUGGCUCCGGCUGGGCAACAUUCCGAGGGGACCGUCCCCUCGGUAAUGCCGAAUGGGACCCA stands 0.223; under GGCCGGCAUGGUCCCAGCCUCCUCGCUGGCUACGGCUGGGCAACAUUCCGAGGGGACCGUCCCCUCGGUAAUGGCGAAUGGGACCCA, 0.111; under GGCCGGCAUGGUCCCAGCCUCCUCGCUGGCUCCGGCUGGGCAACAUUCCGAGGGGACCCUCCCCUCGGUAAUGGCGAAUGGGACCCA, 0.57.
In the case of GGCCGGCAUGGUCCCAGCCUCCUCGCUGGCUCCGGCUGGGCAACAUUCCGAGGGGACCGUACCCUCGGUAAUGGCGAAUGGGACCCA it was 0.38.
In the case of GGCCGGCAUGGUCCCAGCCUCCUCGCUGGCUCCGGCUGGGCAACAUUCCGAGGGGACCGUUCCCUCGGUAAUGGCGAAUGGGACCCA it was 0.478; in that of GGCCGGCAUGGUCCCAGCCUCCUCGCUGGCUCCGGCUGGGCAACCUUCCGAGGGGACCGUCCCCUCGGUAAUGGCGAAUGGGACCCA, 0.119.
With GGCCGGCAUGGUCCCAGCCUCCUCGCUGGCUCCGGCUGGGCAACGUUCCGAGGGGACCGUCCCCUCGGUAAUGGCGAAUGGGACCCA, the self-cleavage is 0.107.
In the case of GGCCGGCAUGGUCCCAGCCUCCUCGCUGGCCCCGGCUGGGCAACAUUCCGAGGGGACCGUUCCCUCGGUAAUGGCGAAUGGGACCCA it was 0.262; in that of GGCCGGCAUGGUCCCAGCCUCCUCGCUGGCCCCGGCUGGGCAACAUUCCGAGGGGAUCGUCCCCUCGGUAAUGGCGAAUGGGACCCA, 0.445; in that of GGCCGGCAUGGUCCCAGCCUCCUCGCUGGCUCCGGCUGGGCAACAUUCCGAGGGGGCCGUCCCCUCGGUAAUGGCGAAUGGGACCCA, 0.386.
For GGCCGGCAUGGUCCCAGCCUCCUCGCUGGCUCCGGCUGGGCAACAUUCCGAGGGGACCGUCCCCUCGGUAAUGGUGAAUGGGACCCA, the self-cleavage was 0.0665.
In the case of GGCCGGCAUGGUCCCAGCCUCCUCGCUGGCUCCGGCUGGGCAACAUUCCGAGGGGACCGUCCCCUCGGUAAUGGGGAAUGGGACCCA it was 0.148; in that of GGCCGGCAUGGUCCCAGCCUCCUCGCUGGCUCCGGCUGGGCAAGAUUCCGAGGGGACCGUCCCCUCGGUAAUGGCGAAUGGGACCCA, 0.0665; in that of GGCCGGCAUGGUCCCAGCCUCCUCGCUGGCCCCGGCUGGGCAACAUUCCGAGGGGACCGUCCCCCCGGUAAUGGCGAAUGGGACCCA, 0.361.
Under GGCCGGCAUGGUCCCAGCCUCCUCGCUGGCUCCGGCUGGGCAGCAUUCCGAGGGGACCGUCCCCUCGGUAAUGGCGAAUGGGACCCA stands 0.0475.
In the case of GGCCGGCAUGGUCCCAGCCUCCUCGCUGGCCCCGGCUGGGCAACAUUCCGAGGGGACCGUCCCCUCGGUAAUGGGGAAUGGGACCCA it was 0.0396; in that of GGCCGGCAUGGUCCCAGCCUCCUCGCUGGCCCCGGCUGGGCAACAUUCCGAGGGGACCGUCCCCUCGAUAAUGGCGAAUGGGACCCA, 0.372.
In the case of GGCCGGCAUGGUCCCAGCCUCCUCGCUGGCUCCGGCUGGGCAACAUUCCGAGGGGACCGUCCCAUCGGUAAUGGCGAAUGGGACCCA, the self-cleavage was 0.364.
In the case of GGCCGGCAUGGUCCCAGCCUCCUCGCUGGCUCCGGCUGGGCAACAUUCCGAGGGGACCGUCCCCUCGGUAGUGGCGAAUGGGACCCA it was 0.271.
Turning to GGCCGGCAUGGUCCCAGCCUCCUCGCUGGCUCCGGCUGGGCAACAUUCCGAGGGGACCGUCCCCUCGGUACUGGCGAAUGGGACCCA, the self-cleavage is 0.0369.
Under GGCCGGCAUGGUCCCAGCCUCCUCGCUGGCCCCGGCUGGGCAACAUUCAGAGGGGACCGUCCCCUCGGUAAUGGCGAAUGGGACCCA stands 0.415.
Consider GGCCGGCAUGGUCCCAGCCUCCUCGCUGGCCCCGGCUGGGCAACAUUCCGAGGGGACCGUCCCCUCGGUAAUGGCGAAUCGGACCCA, for which the self-cleavage amounted to 0.0615.
Under GGCCGGCAUGGUCCCAGCCUCCUCGCUGGCUCCGGUUGGGCAACAUUCCGAGGGGACCGUCCCCUCGGUAAUGGCGAAUGGGACCCA stands 0.0702; under GGCCGGCAUGGUCCCAGCCUCCUCGCUGGCCCCGGCUGGGCAACAUUCCGAGGGGACCGUCCCCUCGGAAAUGGCGAAUGGGACCCA, 0.299; under GGCCGGCAUGGUCCCAGCCUCCUCGCUGGCCCCGGCUGGGCAACAUUCCGAGGGGACCUUCCCCUCGGUAAUGGCGAAUGGGACCCA, 0.252.
For the variant GGCCGGCAUGGUCCCAGCCUCCUCGCUGGCUCCGGCUGGGCAACAUUCCGAGGGGACAGUCCCCUCGGUAAUGGCGAAUGGGACCCA, the self-cleavage came out at 0.35.
In the case of GGCCGGCAUGGUCCCAGCCUCCUCGCUGGCCCCGGCUGGGCAACAUUCCGAGCGGACCGUCCCCUCGGUAAUGGCGAAUGGGACCCA it was 0.332; in that of GGCCGGCAUGGUCCCAGCCUCCUCGCUGGCUCCAGCUGGGCAACAUUCCGAGGGGACCGUCCCCUCGGUAAUGGCGAAUGGGACCCA, 0.0804; in that of GGCCGGCAUGGUCCCAGCCUCCUCGCUGGCUCCGGCUGGGCAACAUUCCGAGGGGACCGUCCCCUCGGUAAUGGCGAAUGUGACCCA, 0.23.
For GGCCGGCAUGGUCCCAGCCUCCUCGCUGGCUCCGGCUGGGCAACAUUCCGAGGGGACCGUCCCCUCGGUAAUGGCGCAUGGGACCCA, the self-cleavage came out at 0.0489.
In the case of GGCCGGCAUGGUCCCAGCCUCCUCGCUGGCCCCGGCUGGGCAACAUUCCCAGGGGACCGUCCCCUCGGUAAUGGCGAAUGGGACCCA it was 0.511; in that of GGCCGGCAUGGUCCCAGCCUCCUCGCUGGCUCCGGCUUGGCAACAUUCCGAGGGGACCGUCCCCUCGGUAAUGGCGAAUGGGACCCA, 0.0944; in that of GGCCGGCAUGGUCCCAGCCUCCUCGCUGGCCCCGGCUGGGCAACAUUCCGAGGGGACCGUCCCCUCGGUAAUGGCGAAUGGCACCCA, 0.134.
Under GGCCGGCAUGGUCCCAGCCUCCUCGCUGGCUCCGGCUGGGCAACAUUCCGAGGGGACCGUCCCCUGGGUAAUGGCGAAUGGGACCCA stands 0.266; under GGCCGGCAUGGUCCCAGCCUCCUCGCUGGCCCCGGCUGGGCAACAUUACGAGGGGACCGUCCCCUCGGUAAUGGCGAAUGGGACCCA, 0.449; under GGCCGGCAUGGUCCCAGCCUCCUCGCUGGCCCCGGCUGGGCAACAUUCCGAGGCGACCGUCCCCUCGGUAAUGGCGAAUGGGACCCA, 0.193.
Under GGCCGGCAUGGUCCCAGCCUCCUCGCUGGCCCCGGCUGGGCAACAUUCCGAGGAGACCGUCCCCUCGGUAAUGGCGAAUGGGACCCA stands 0.191; under GGCCGGCAUGGUCCCAGCCUCCUCGCUGGCCCCGGCUGGGCAACAUUCCGAUGGGACCGUCCCCUCGGUAAUGGCGAAUGGGACCCA, 0.391.
With GGCCGGCAUGGUCCCAGCCUCCUCGCUGGCCCCGGCUGGGCAACAUUCCGAAGGGACCGUCCCCUCGGUAAUGGCGAAUGGGACCCA, the self-cleavage came out at 0.234.
In the case of GGCCGGCAUGGUCCCAGCCUCCUCGCUGGCCCCGGCUGGGCAACAUUCCGAGGGGACCGUCCCCUCGGUAAGGGCGAAUGGGACCCA it was 0.128; in that of GGCCGGCAUGGUCCCAGCCUCCUCGCUGGCCCCGGCUGGGCAACAUUCCGAGGGGACCGUCCCCUCAGUAAUGGCGAAUGGGACCCA, 0.402; in that of GGCCGGCAUGGUCCCAGCCUCCUCGCUGGCUCCGGCUGGGCAACAUUCCGAGGGGACCGUCCCCUCGGUGAUGGCGAAUGGGACCCA, 0.48.
In the case of GGCCGGCAUGGUCCCAGCCUCCUCGCUGGCUCCGGCUGGGCAACAUUCCGAGGGGACCGUCCCCUCGGUAAUGGCUAAUGGGACCCA it was 0.585.
In the case of GGCCGGCAUGGUCCCAGCCUCCUCGCUGGCCCCGGCUGGGCAACAUUCCGAGGGGACCGUCCCCUCGGUAAUGGCGAAUGCGACCCA it was 0.194.
In the case of GGCCGGCAUGGUCCCAGCCUCCUCGCUGGCUCCGGCUGGGCAACAUUCCGAGGGGAUCGUCCCCUCGGUAAUGGCGAAUGGGACCCA, the self-cleavage amounted to 0.383.
GGCCGGCAUGGUCCCAGCCUCCUCGCUGGCCCCGGCUGGGCAACAUUCCGAGGGGACCGUCCCCUCGGUAAUGGCGAAAGGGACCCA: the self-cleavage amounted to 0.17.
Under GGCCGGCAUGGUCCCAGCCUCCUCGCUGGCUCCGGCGGGGCAACAUUCCGAGGGGACCGUCCCCUCGGUAAUGGCGAAUGGGACCCA stands 0.107; under GGCCGGCAUGGUCCCAGCCUCCUCGCUGGCUCCGGCUGGGCAACAAUCCGAGGGGACCGUCCCCUCGGUAAUGGCGAAUGGGACCCA, 0.0755.
Under GGCCGGCAUGGUCCCAGCCUCCUCGCUGGCCCCGGCUGGGCAACAUUCCGAGGGGACCGUCACCUCGGUAAUGGCGAAUGGGACCCA stands 0.181; under GGCCGGCAUGGUCCCAGCCUCCUCGCUGGCCCCGGCUGGGCAACAUUCCGAGGGGACCGUCGCCUCGGUAAUGGCGAAUGGGACCCA, 0.166.
In the case of GGCCGGCAUGGUCCCAGCCUCCUCGCUGGCUCCGGCUGGGCAACAUUCCCAGGGGACCGUCCCCUCGGUAAUGGCGAAUGGGACCCA it was 0.237; in that of GGCCGGCAUGGUCCCAGCCUCCUCGCUGGCUCCGGCUGGGCUACAUUCCGAGGGGACCGUCCCCUCGGUAAUGGCGAAUGGGACCCA, 0.104; in that of GGCCGGCAUGGUCCCAGCCUCCUCGCUGGCUCCGGCUGGGCCACAUUCCGAGGGGACCGUCCCCUCGGUAAUGGCGAAUGGGACCCA, 0.131.
Take GGCCGGCAUGGUCCCAGCCUCCUCGCUGGCUCCGGCUGGGCAACAUUCCGAGCGGACCGUCCCCUCGGUAAUGGCGAAUGGGACCCA: the self-cleavage worked out at 0.563.
For GGCCGGCAUGGUCCCAGCCUCCUCGCUGGCCCCGGCUGGGCAACAUUCCGAGGGGACCGUCCCCUCGGUAAUGGCUAAUGGGACCCA, the self-cleavage was 0.463.
Under GGCCGGCAUGGUCCCAGCCUCCUCGCUGGCCCCGGCUGGGCAACAUUCCGAGGGGACCGUCCCCUCGGUAAUGGCGAAUGGGAGCCA stands 0.193; under GGCCGGCAUGGUCCCAGCCUCCUCGCUGGCCCCGGCUGGGCAAAAUUCCGAGGGGACCGUCCCCUCGGUAAUGGCGAAUGGGACCCA, 0.
For the variant GGCCGGCAUGGUCCCAGCCUCCUCGCUGGCCCCGGCUGGGCAACAUUCCGAGGGGACCGUCCGCUCGGUAAUGGCGAAUGGGACCCA, the self-cleavage came out at 0.34.
As for GGCCGGCAUGGUCCCAGCCUCCUCGCUGGCCCCCGCUGGGCAACAUUCCGAGGGGACCGUCCCCUCGGUAAUGGCGAAUGGGACCCA, the self-cleavage was 0.0396.
Under GGCCGGCAUGGUCCCAGCCUCCUCGCUGGCUCCGGCUGGACAACAUUCCGAGGGGACCGUCCCCUCGGUAAUGGCGAAUGGGACCCA stands 0.359; under GGCCGGCAUGGUCCCAGCCUCCUCGCUGGCCCCGGCAGGGCAACAUUCCGAGGGGACCGUCCCCUCGGUAAUGGCGAAUGGGACCCA, 0.115.
In the case of GGCCGGCAUGGUCCCAGCCUCCUCGCUGGCUCCGGCUGGGCAACAUUCCGAGGGGACCGUCCCCUCUGUAAUGGCGAAUGGGACCCA it was 0.297.
